Data: article PMC5780496

Target: HACE1 (UniProt Q8IYU2)
Experiment: co-IP of differently tagged HACE1
Settings: reference: HACE1 WT with PAK1(K141A); sites S385

HACE1, sequence (Q8IYU2 whole entry, stated change not applied): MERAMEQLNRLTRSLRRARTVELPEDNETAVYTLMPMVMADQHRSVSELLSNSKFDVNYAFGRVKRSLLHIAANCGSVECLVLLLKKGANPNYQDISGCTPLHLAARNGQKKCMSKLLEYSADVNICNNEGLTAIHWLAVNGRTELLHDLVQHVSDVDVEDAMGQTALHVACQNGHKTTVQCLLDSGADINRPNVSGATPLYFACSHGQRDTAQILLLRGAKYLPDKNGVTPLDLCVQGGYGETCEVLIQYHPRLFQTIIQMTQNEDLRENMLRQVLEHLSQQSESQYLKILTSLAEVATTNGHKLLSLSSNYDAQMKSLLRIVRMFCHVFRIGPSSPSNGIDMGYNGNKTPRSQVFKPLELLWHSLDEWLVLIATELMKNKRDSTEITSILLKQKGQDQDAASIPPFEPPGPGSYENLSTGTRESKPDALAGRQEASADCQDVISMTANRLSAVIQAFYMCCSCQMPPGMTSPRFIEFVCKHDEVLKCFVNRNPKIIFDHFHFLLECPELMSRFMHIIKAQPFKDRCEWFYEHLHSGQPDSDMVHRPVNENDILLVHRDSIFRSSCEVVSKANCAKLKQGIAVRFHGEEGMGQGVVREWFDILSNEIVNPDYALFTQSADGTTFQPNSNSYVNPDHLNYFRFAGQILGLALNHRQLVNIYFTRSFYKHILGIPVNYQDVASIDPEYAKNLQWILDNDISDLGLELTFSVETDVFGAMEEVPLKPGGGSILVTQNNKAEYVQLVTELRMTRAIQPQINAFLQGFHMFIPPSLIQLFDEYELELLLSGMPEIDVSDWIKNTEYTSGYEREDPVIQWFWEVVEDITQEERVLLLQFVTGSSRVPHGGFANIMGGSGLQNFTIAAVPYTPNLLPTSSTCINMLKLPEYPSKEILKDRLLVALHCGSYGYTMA

## HACE1 (from UniProt Q8IYU2) HACE1 S385A with PAK1(K141A)
  binding against the reference: weaker
